Measurements taken from patent US20260132182A1 (published 2026).
Starred links: 1 amine or outer side, 2 acyl side, 3 side chain; linkers in the order of their positions; H or OH if unused. Non-standard residues stand in square brackets, D forms with d. Groups on a side chain read outwards from the residue. *: point of attachment. C20 diacid = O=C(O)CCCCCCCCCCCCCCCCCCC(=O)*; C18 diacid = O=C(O)CCCCCCCCCCCCCCCCC(=O)*; C16 diacid = O=C(O)CCCCCCCCCCCCCCC(=O)*; γGlu = O=C(O)[C@H](CCC(=O)[*:2])N[*:1]; εLys = N[C@@H](CCCCN[*:1])C(=O)[*:2]; Trx = NC[C@H]1CC[C@H](C(=O)O)CC1; AEEA = NCCOCCOCC(=O)O; Aib = CC(C)(N)C(=O)O

What was measured:
human GLP-1 receptor = human GLP-1 receptor (human, UniProt P43220 24-463); assay: cell-based or functional assay
[1] = target: T1, human amylin-3 (a) receptor (human, UniProt P30988 25-474; O60896 24-148); assay: cell-based or functional assay
T1 sequence (looked up) 1: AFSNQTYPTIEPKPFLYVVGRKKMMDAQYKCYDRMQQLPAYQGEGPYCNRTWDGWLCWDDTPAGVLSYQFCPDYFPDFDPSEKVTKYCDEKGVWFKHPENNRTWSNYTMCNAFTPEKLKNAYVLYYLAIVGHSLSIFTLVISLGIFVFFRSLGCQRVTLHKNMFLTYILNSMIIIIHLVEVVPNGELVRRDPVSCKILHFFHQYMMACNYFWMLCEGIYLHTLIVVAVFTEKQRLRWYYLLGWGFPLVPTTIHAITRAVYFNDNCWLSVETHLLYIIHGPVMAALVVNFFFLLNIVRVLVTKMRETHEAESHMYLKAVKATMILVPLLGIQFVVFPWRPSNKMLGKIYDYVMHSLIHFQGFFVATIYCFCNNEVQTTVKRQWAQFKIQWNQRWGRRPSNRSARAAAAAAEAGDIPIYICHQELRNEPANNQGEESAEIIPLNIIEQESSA
T1 sequence (looked up) 2: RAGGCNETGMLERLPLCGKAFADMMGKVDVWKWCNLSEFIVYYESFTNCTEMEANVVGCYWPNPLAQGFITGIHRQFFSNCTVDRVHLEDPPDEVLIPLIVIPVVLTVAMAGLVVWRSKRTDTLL

B1: Compound 0539 (peptide)
peptide: H[Aib]EGTFTSDVSSYLEGQAAREFIAWLVRGRGQEPK([AEEA-AEEA-γGlu-Trx-C20 diacid])GQAPEASELSTAALGRLSAELHELATLPRTETGSGSP-NH2
Human GLP-1R potency [EC50 (pM)] (human GLP-1 receptor): 5 pM | Human AmyR3 potency [EC50 (pM)] [1]: 12.1 pM

B2: Compound 0561 (peptide)
peptide: H[Aib]EGTFTSDVSSYLEEQAARK([AEEA-AEEA-γGlu-Trx-C20 diacid])FIAWLVRGRGGGGGEASELSTAALGRLSAELHELATLPRTETGSGSP-NH2
Human GLP-1R potency [EC50 (pM)] (human GLP-1 receptor): 17.5 pM | Human AmyR3 potency [EC50 (pM)] [1]: 10.7 pM

B3: Compound 0552 (peptide)
peptide: H[Aib]EGTFTSDVSSYLEEQAAREFIAWLVRGRK([εLys-AEEA-AEEA-γGlu-C20 diacid])GGGGEASELSTAALGRLSAELHELATLPRTETGSGSP-NH2
Human GLP-1R potency [EC50 (pM)] (human GLP-1 receptor): 4.7 pM | Human AmyR3 potency [EC50 (pM)] [1]: 6.9 pM

B4: Compound 0518 (peptide)
peptide: H[Aib]EGTFTSDVSK([AEEA-AEEA-γGlu-Trx-C20 diacid])YLEEQAAREFIAWLVRGRGGGGGEASELSTAALGRLSAELHELATLPRTETGSGSP-NH2
Human GLP-1R potency [EC50 (pM)] (human GLP-1 receptor): 3.4 pM | Human AmyR3 potency [EC50 (pM)] [1]: 4.4 pM

B5: Compound 0528 (peptide)
peptide: H[Aib]EGTFTSDVSK([AEEA-AEEA-γGlu-C16 diacid])YLEEQAAREFIAWLVRGRK([AEEA-AEEA-γGlu-C16 diacid])GGGGEASELSTAALGRLSAELHELATLPRTETGSGSP-NH2
Human GLP-1R potency [EC50 (pM)] (human GLP-1 receptor): 3.8 pM | Human AmyR3 potency [EC50 (pM)] [1]: 22 pM

B6: Compound 0512 (peptide)
peptide: H[Aib]EGTFTSDVSSYLEEQAAREFIAWLVRGRK([AEEA-AEEA-γGlu-Trx-C20 diacid])GGEASELSTAALGRLSAELHELATLPRTETGSGSP-NH2
Human GLP-1R potency [EC50 (pM)] (human GLP-1 receptor): 7.6 pM | Human AmyR3 potency [EC50 (pM)] [1]: 10.8 pM

B7: Compound 0529 (peptide)
peptide: H[Aib]EGTFTSDVSSYLEGQAAREFIAWLVRGRGQEPK([AEEA-AEEA-γGlu-C20 diacid])GQAPEASELSTAALGRLSAELHELATLPRTETGSGSP-NH2
Human GLP-1R potency [EC50 (pM)] (human GLP-1 receptor): 6.4 pM | Human AmyR3 potency [EC50 (pM)] [1]: 14.1 pM

B8: Compound 0516 (peptide)
peptide: H[Aib]EGTFTSDVSK([AEEA-AEEA-γGlu-C16 diacid])YLEEQAARKFIAWLVRGRGGGGGEASELSTAALGRLSAELHELATLPRTETGSGSP-NH2
modifications: not fully specified (residue 21)
Human GLP-1R potency [EC50 (pM)] (human GLP-1 receptor): 3.3 pM | Human AmyR3 potency [EC50 (pM)] [1]: 8.9 pM

B9: Compound 0562 (peptide)
peptide: H[Aib]EGTFTSDVSSYLEEQAARK([AEEA-AEEA-γGlu-C20 diacid])FIAWLVRGRGGGGGEASELSTAALGRLSAELHELATLPRTETGSGSP-NH2
Human GLP-1R potency [EC50 (pM)] (human GLP-1 receptor): 19.3 pM | Human AmyR3 potency [EC50 (pM)] [1]: 4.1 pM

B10: Compound 0056 (peptide)
peptide: H[Aib]EGTFTSDVSSYLEGQAAK([AEEA-AEEA-γGlu-C18 diacid])EFIAWLVRGRGK([AEEA-AEEA-γGlu-C18 diacid])QEPGQEPEASELSTAALGRLSAELHELATLPRTETGSGSP-NH2
Human GLP-1R potency [EC50 (pM)] (human GLP-1 receptor): 41.4 pM | Human AmyR3 potency [EC50 (pM)] [1]: 120 pM

B11: Compound 0511 (peptide)
peptide: H[Aib]EGTFTSDVSRYLEEQAAREFIEWLVRGRK([AEEA-AEEA-γGlu-Trx-C20 diacid])GGGGEASELSTAALGRLSAELHELATLPRTETGSGSP-NH2
Human GLP-1R potency [EC50 (pM)] (human GLP-1 receptor): 8.8 pM | Human AmyR3 potency [EC50 (pM)] [1]: 8.4 pM
